Laboratory results published in patent publication US20180282407A1 (FUKUSHIMA MEDICAL UNIVERSITY, published 2018).
Where two headings read alike, the source gives them in different places. Ends that are not written are not given here.

T1: Ocln3 (human)
T1 construct: also called Ocln3 peptide
T1 peptide: QFYTPAATG

T2: antigenic occludin peptide of SEQ ID NO: 7 (positions 214 to 230 of human occludin, second extracellular … (human, also: KLH carrier linked at N-terminus for immunisation, ELISA form not given here))
T2 construct: also called the antigen; antigenic peptide
T2 peptide: ALCNQFYTPAATGLYVD

T3: Ocln1 (human)
T3 construct: has a cysteine and can form a dimer, so the ELISA was also run under acidic conditions (2 N HCl); also called Ocln1 peptide
T3 peptide: ALCNQFYTPA

B1: mouse anti-human occludin monoclonal antibody clone 67-2 (antibody, IgG1, V domains shown)
VH: EVQLQQSGPELVKPGASVKISCKASGYTFTDYIMDWVKQSHGKSLEWIGYIYPNNGGTGYNQKFKSKATLTIDKSSSTAYMELHSLTSEDSAVYYCAREDGDYGYFDVWGAGTTVTVSS
VL: QAVVTQESALTTSPGGTVILTCRSSTGAVTTSNYANWVQEKPDHLFTGLIGGTSNRAPGVPVRFSGSLIGDKAALTITGAQTEDDAMYFCALWYSTHYVFGGGTKVTVLG
notes: Mouse antibody from hybridoma C67-2; also called 67-2 antibody; anti-occludin antibody 67-2

What was measured:
[1] = molecular target: human CD81 protein (human) (UniProt P60033); assay: cell-based or functional assay
Sequence of human CD81 protein (human) (P60033 whole entry): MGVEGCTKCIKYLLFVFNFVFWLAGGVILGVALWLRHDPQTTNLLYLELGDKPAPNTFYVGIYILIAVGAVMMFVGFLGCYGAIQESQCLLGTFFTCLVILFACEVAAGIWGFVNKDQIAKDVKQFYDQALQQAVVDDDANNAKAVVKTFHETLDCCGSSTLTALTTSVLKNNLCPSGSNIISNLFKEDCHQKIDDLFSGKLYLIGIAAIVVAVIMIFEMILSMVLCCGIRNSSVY

[2] = molecular target: human CD81 protein (human) (UniProt P60033); assay: cell-based or functional assay; remark: listed apart in the source
Ocln3 = molecular target: T1, Ocln3; assay: ELISA on coated peptide
From the text: (§1) Accordingly, Ocln1 consisting of the amino acid sequence represented by SEQ ID NO: 6 ([…]) by the truncation of 7 residues from the […] side of the amino acid sequence represented by SEQ ID NO: 7, Ocln2 consisting of the amino acid sequence represented by SEQ ID NO: 11 ([…]) by the truncation of 7 residues from the 5′-terminal side thereof, and Ocln3 consisting of the amino acid sequence represented by SEQ ID NO: 12 ([…]) by the truncation of 3 to 4 residues from both terminal sides were prepared as antigenic peptides (FIG. 11A). KLH-Ocln peptide (1 μg/well) was used as a positive control antigen.
(§2) Each antigenic peptide was added at 25, 50, 100, and 500 μg/well to an antigen sensitization microplate (Nunc/Thermo Fisher Scientific Inc.) and incubated overnight at room temperature. After blocking with 5% BSA/PBS/0.09% NaN₃ at 37° C. for 2 hours, the 67-2 antibody or normal mouse IgG was added thereto and incubated at room temperature for 1 hour. Ocln1 has a cysteine residue in the sequence and is therefore capable of forming a dimer. Therefore, the analysis was also conducted under acidic conditions (2 N HCl). […] The absorbance at 450 nm/655 nm was measured using a microplate reader. […]

[3] = molecular target: T2, antigenic occludin peptide of SEQ ID …; assay: ELISA of subclone culture supernatants on the antigen
Ocln1 = molecular target: T3, Ocln1; assay: ELISA on coated peptide, acidic conditions (2 N HCl), HRP anti-mouse IgG
From the text: as §1, §2

Molecule | infection inhibition rate, HCVpv H77, Huh7.5.1 monolayer culture (luciferase) [1] [%] | infection inhibition rate, HCVpv con1, Huh7.5.1 monolayer culture (luciferase) [1] [%] | infection inhibition rate, HCVpv 9-3, Huh7.5.1 monolayer culture (luciferase) [2] [%] | infection inhibition rate, HCVpv con1, Huh7.5.1 monolayer culture (luciferase) [2] [%] | binding result (Ocln3) | binding result [3] | binding result (Ocln1)
anti-human CD81 antibody (JS-81 clone; BD Pharmingen) | 99.1 | 99.8 | 98 | 99 |  |  | 
B1 |  |  |  |  | no binding | binds | binds
